Experimental data from patent US20260151499A1, “ANTIBODY DERIVATIVE AND USE THEREOF” (TSINGHUA UNIVERSITY, priority 2023, published 2026).
Changes are numbered by the printed parent chain.

T1: CD73 (Homo sapiens, UniProt P21589)
T1 construct: His (Chis) (C); made in house; host or cells: 293 cells
T1 sequence (P21589 27-549 limits assumed): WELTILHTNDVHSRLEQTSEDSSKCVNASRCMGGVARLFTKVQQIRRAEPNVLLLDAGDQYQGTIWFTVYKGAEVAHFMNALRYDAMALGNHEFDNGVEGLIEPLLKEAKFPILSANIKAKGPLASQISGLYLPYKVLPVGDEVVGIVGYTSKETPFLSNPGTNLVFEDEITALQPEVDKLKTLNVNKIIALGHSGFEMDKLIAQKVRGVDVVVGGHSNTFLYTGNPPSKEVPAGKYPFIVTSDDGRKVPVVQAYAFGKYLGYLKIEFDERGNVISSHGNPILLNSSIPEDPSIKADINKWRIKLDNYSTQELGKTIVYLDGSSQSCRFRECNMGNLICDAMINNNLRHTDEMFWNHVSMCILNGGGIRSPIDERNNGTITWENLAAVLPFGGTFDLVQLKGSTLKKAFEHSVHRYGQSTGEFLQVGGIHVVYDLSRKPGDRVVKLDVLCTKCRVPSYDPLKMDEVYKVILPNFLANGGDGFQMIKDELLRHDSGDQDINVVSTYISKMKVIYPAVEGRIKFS

B1: 10A7-BN3: IgG1 antibody 10A7 conjugated to BN3 (conjugate)
VH: EVQLVESGGGLVQPGGSLRLSCAASGFAFSSYSMSWVRQAPGKGLEWIGSIYYSGSTYYNPSLKSRVTISADTSKNTAYLQMNSLRAEDTAVYYCARNSGFETLDYWGQGTLVTVSS
VL: DIQMTQSPSSLSASVGDRVTITCRASQGISRWLAWYQQKPGKAPNLLIYGASTLQSGVPPRFSGSRSGTDFTLTISSLQPEDFATYYCQQXYTTPPTFGQGTKLEI
modifications: non-natural residues
B2: 14E6-PEG3-ASF: antibody 14E6 conjugated with ASF-PEG3-DBCO (conjugate)
VH: EVQLVESGGGLVQPGGSLRLSCAASGFTFSNFAMHWVRQAPGKGLEYVSAISGGNGGGTYYADSAKGRFTISADTSKNTAYLQMNSLRAEDTAVYYCAREGNYCLDYWGQGTLVTVSS
VL: B1 VL with G28P, R31D, N45K, L46S, G50D, S52Y, T53N
modifications: not fully specified; non-natural residues
notes: antibody 14E6 conjugated with ASF-PEG3-DBCO
B3: 5A5-PEG3-ASF: antibody 5A5 conjugated with ASF-PEG3-DBCO (conjugate)
VH: EVQLVESGGGLVQPGGSLRLSCAASGFPFSGHWMHWVRQAPGKGLEWVSGISWNGGTTGYADSVKGRFTISRDNAKNSVYLQMNSLRAEDTAVYYCARDDYGGDSFDSWGQGTLVTVSS
VL: B1 VL with G28S, R31D, N45K, G50A, T53S, P60S
modifications: non-natural residues
notes: antibody 5A5 conjugated with ASF-PEG3-DBCO
B4: ABN3-2B-BN3: IgG1 antibody ABN3-2B conjugated to BN3 (conjugate)
VH: EVQLVESGGGLVQPGGSLRLSCAASGFTFSSYWMHWVRQAPGKGLEWVSAVSGSGDSTYYADSVKGRFTISADTSKNTAYLQMNSLRAEDTAVYYCAREGDWGLDYWGQGTLVTVSS
VL: B1 VL with S30N, R31N, W32Y, N45K, G50D, T53N, Q55E, S56T, P60S
modifications: not fully specified; non-natural residues
B5: ABN3-2G-BN3: IgG1 antibody ABN3-2G conjugated to BN3 (conjugate)
VH: EVQLVESGGGLVQPGGSLRLSCAASGITFGSYTMSWVRQAPGKGLEWIGTVHYTGKTFYSPSLKSRVTISADTSKNTAYLQMNSLRAEDTAVYYCARGRDFGEPPYVRAFDIWGQGTLVTVSS
VL: DIQMTQSPSSLSASVGDRVTITCQASHDISKYLNWYQQKPGKAPKLLIYDASNLETGVPSRFSGSRSGTDFTLTISSLQPEDFATYYCQQXYTTPPTFGQGTKLEI
modifications: not fully specified; non-natural residues

How the values were obtained:
CD73 [1] = target: T1, CD73; assay: CD73 inhibition, AMP hydrolysis, malachite green phosphate assay; format: biochemical; details: calculated from the inhibition curves
CD73 [2] = target: T1, CD73; assay: Octet BLI affinity for CD73, Ab-BN3 on protein A sensors; format: binding
NaV1.7 = target: T2, NaV1.7 (Homo sapiens, UniProt Q15858); assay: Whole-cell patch clamp, HEK293-NaV1.7 cells; format: cell-based; details: tested up to 500 nM where selectivity
T2 construct: expressed in transfected cells; host or cells: HEK293
T2 sequence (Q15858 whole entry): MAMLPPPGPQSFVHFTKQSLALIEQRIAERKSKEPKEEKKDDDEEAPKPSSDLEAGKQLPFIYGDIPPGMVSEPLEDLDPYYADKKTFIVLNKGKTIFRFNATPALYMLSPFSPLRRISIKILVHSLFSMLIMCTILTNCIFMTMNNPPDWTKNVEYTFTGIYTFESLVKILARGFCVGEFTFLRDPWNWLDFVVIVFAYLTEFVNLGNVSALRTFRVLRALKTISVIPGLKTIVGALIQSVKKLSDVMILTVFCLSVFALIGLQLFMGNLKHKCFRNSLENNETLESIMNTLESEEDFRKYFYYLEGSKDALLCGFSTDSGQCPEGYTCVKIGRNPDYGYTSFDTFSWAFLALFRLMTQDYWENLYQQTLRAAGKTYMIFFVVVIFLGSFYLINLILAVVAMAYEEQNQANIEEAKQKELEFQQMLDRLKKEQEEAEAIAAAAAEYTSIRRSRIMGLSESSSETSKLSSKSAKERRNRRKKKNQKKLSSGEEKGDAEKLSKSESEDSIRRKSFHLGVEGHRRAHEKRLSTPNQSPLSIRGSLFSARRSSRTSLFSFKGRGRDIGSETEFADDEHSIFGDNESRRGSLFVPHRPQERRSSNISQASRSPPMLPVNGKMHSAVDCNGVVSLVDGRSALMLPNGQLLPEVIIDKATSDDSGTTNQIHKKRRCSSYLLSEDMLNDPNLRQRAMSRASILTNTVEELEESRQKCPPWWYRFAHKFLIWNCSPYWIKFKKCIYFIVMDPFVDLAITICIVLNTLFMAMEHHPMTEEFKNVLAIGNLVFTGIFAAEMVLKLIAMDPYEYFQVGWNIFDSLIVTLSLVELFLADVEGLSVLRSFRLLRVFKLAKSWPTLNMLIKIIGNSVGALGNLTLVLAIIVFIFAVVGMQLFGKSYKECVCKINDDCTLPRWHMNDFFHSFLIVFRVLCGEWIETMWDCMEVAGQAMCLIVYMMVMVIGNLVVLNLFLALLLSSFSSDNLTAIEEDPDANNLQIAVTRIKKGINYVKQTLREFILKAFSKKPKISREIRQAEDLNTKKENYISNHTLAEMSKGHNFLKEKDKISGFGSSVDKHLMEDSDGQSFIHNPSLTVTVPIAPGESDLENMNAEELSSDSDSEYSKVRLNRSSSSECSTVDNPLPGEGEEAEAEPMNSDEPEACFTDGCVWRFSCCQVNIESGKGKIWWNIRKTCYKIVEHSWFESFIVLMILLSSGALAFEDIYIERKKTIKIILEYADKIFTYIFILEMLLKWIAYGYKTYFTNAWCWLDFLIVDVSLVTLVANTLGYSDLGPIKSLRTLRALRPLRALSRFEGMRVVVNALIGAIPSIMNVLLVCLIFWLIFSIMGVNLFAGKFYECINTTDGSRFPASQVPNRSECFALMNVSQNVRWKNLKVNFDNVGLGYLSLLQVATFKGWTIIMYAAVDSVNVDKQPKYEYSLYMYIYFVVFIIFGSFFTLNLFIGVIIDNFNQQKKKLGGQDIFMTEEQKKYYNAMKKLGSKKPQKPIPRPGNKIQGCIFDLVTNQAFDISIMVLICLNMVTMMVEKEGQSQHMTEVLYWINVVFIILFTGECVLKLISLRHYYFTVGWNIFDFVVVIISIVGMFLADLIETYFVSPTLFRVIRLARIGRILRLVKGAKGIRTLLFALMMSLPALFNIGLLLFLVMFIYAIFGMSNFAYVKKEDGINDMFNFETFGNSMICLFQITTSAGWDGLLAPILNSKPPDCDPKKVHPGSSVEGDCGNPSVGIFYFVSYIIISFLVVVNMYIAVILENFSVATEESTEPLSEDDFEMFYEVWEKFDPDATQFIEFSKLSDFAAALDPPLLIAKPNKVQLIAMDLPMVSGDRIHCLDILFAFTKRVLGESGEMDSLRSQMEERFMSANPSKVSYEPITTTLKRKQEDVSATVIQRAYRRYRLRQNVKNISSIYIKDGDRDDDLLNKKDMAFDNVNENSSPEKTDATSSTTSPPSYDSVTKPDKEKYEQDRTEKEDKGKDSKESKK

NaV1.2 = target: T3, NaV1.2 (Homo sapiens, UniProt Q99250); assay: Whole-cell patch clamp, HEK293-NaV1.2 cells; format: cell-based
T3 construct: expressed in transfected cells; host or cells: HEK293
T3 sequence (Q99250 whole entry): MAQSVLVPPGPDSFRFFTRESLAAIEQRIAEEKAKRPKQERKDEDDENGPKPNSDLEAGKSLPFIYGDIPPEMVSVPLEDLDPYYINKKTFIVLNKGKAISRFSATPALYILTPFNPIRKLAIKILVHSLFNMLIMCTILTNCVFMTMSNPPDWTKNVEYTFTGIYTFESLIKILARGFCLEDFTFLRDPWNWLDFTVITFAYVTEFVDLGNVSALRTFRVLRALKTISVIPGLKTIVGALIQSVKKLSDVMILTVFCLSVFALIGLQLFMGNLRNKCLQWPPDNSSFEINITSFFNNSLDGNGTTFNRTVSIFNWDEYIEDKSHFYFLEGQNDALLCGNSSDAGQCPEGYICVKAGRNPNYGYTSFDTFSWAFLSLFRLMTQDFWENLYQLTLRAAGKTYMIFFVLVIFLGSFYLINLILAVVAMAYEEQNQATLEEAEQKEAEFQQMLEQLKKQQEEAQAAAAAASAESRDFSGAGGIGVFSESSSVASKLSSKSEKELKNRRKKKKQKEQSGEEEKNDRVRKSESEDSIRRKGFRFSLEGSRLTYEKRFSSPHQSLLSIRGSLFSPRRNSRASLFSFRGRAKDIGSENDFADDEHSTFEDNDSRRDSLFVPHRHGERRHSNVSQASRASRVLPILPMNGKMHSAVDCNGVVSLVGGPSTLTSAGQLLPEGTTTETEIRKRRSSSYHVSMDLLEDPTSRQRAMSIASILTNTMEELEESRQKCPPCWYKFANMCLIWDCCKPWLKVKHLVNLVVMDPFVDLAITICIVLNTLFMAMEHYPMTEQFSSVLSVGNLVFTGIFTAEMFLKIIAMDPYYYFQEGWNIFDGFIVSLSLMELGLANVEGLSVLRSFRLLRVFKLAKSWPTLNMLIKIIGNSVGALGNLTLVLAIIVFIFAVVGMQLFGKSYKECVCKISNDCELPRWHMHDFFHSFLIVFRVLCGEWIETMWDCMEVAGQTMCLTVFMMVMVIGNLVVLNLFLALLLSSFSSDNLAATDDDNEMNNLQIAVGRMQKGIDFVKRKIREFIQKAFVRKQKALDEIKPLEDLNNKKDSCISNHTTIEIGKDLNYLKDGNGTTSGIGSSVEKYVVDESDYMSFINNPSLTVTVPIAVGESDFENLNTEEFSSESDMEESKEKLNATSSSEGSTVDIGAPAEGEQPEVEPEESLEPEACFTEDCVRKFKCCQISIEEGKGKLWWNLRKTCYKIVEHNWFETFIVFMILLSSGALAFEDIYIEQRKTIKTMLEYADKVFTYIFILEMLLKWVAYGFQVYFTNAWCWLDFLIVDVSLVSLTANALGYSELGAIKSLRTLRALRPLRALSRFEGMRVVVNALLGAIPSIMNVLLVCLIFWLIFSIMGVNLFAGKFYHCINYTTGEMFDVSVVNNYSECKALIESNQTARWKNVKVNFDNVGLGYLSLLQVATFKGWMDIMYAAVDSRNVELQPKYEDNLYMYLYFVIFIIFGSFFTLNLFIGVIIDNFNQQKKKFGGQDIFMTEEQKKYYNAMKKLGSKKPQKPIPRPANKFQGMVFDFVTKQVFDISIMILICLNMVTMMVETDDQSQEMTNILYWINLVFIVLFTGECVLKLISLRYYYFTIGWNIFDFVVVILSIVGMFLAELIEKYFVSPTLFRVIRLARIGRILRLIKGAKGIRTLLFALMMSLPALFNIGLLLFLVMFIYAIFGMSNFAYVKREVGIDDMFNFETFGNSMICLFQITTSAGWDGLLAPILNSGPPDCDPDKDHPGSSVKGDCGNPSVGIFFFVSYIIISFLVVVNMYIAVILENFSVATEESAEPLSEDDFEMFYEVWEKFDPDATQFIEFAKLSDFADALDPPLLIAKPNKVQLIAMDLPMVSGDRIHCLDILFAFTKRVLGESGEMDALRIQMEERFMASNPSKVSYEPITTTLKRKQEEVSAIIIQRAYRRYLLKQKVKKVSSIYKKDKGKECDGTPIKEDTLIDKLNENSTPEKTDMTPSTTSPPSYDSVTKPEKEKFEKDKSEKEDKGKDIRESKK

NaV1.6 = target: T4, NaV1.6 (Homo sapiens, UniProt Q9UQD0); assay: Whole-cell patch clamp, HEK293-NaV1.6 cells; format: cell-based
T4 construct: expressed in transfected cells; host or cells: HEK293

Molecule	Kdis (CD73 [2])	Kon (CD73 [2])	inhibitory activity against NaV1.7 (in words) (NaV1.7)	also measured
B1	0.000191 s⁻¹	2.15 × 10^5 1/ms		IC90 (CD73 [1]): 2.9 nM
B2			no inhibitory activity	inhibitory activity against NaV1.2 at 100 nM (in words) (NaV1.2; 100 nM Ab-ASF): near-complete inhibition
B3			no inhibitory activity	improvement of NaV1.6 inhibitory activity over ASF-PEG3-DBCO (NaV1.6): more than 20 fold; inhibitory activity against NaV1.2 (in words) (NaV1.2; tested up to 500 nM): no inhibitory activity
B4	0.000582 s⁻¹	1.85 × 10^5 1/ms		
B5	0.000271 s⁻¹	3.05 × 10^5 1/ms		
